# Data as given in patent publication US20220073599A1 (Hoffmann-La Roche, published 2022).
# Positions count from the first letter of the chain named.
# T1: Mouse ANG2 (mouse, UniProt O35608 275-496, limits assumed)
# T1 construct: domain: RBD; also called mouse Ang2-RBD
# T1 sequence (looked up): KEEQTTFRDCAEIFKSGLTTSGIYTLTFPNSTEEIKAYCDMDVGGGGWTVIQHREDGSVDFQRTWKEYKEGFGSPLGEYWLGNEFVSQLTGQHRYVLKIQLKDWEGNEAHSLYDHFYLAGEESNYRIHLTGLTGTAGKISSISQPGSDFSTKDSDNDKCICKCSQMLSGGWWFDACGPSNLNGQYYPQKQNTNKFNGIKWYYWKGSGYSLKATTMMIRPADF
# T2: human VEGFA-121-His (human, UniProt P15692 181-395)
# T2 construct: Prepared in-house; not shown: His tag
# T2 sequence: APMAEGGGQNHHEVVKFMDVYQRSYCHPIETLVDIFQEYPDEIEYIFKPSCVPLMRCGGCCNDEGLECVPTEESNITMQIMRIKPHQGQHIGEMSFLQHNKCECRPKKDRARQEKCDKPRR
# T3: Mouse VEGF-A-121 (mouse, UniProt Q00731-3 27-146)
# T3 construct: also called mouse VEGF-A121-His; not shown: His tag
# T3 sequence (looked up): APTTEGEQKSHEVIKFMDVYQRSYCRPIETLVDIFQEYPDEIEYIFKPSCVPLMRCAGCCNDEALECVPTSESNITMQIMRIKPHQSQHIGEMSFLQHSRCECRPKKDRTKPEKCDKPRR
# T4: human Ang2-RBD (human, UniProt O15123 275-496, limits assumed)
# T4 construct: also called Human ANG2 (SPR); Angiopoietin 2-RBD
# T4 sequence: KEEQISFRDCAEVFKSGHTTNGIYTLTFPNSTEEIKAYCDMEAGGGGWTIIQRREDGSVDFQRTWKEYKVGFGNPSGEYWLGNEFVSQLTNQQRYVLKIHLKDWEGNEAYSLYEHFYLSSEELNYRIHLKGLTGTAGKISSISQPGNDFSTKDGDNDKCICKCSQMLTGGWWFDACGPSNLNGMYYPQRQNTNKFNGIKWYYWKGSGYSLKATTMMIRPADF
# B1: bispecific anti-VEGF-A/anti-ANG2 Fab fragment P1AD9820 (Fab, V domains shown)
# VH: SEHLVESGGGLVKPGGSLRLSCATADFFEYDDMSWVRQAPGKGLEWVGSISPKGDHKYLNTKFIGRFTISRDDSKNTLYLQMNSLRAEDTAVYYCARDVGFFDWWGQGTLVTVSS
# VL: AIYMHQEPSSLSASVGDRVTITCHGSYWLNSEVAWYQQKPGKAPKLLIFDGDFKVYEVPSRFSGSGSHEDYTLTISSLQPEDFATYYCQQYRYHPYTFGHGTKVEIKR
# notes: Bispecific Fab with two paratopes in one VH/VL pair; also called P1AD9820 Fab
# B2: bispecific anti-VEGF-A/anti-ANG2 Fab fragment P1AA8906 (Fab, V domains shown)
# VH: DFQLVESGGGLVKPGGSLRLSCAASYEFEYDDMSWVRQAPGKGLEWVGSISPKGGSTYYNTKFIGRFTISRDNSKNTLYLQMNSLRAEDTAVYYCARDVGFFDMWGQGTLVTVSS
# VL: B1 VL with N30S, S31N, E32Y, V33L, G51A, D52R, F53W, K54L, Y56H, E57G
# notes: Bispecific Fab with two paratopes in one VH/VL pair (DutaFab); CH1 and Ckappa
# What was measured:
# Mouse ANG2 = biological target: T1, Mouse ANG2; experiment: SPR crossreactivity set-up, Fab captured by anti-Fab antibody, Ang2-RBD injected, 25 C
# Procedure: An anti-Fab capturing antibody (GE Healthcare 28958325) was immobilized to a Series S Sensor Chip C1 (GE Healthcare BR100535) using standard amine coupling chemistry resulting in a surface density of approximately 800 resonance units (RU). As running and dilution buffer, HBS-P+ (10 mM HEPES, 150 mM NaCl pH 7.4, 0.05% Surfactant P20) was used, the temperature of measurement was 25° C. The tested antibody was captured by injecting a 50 nM solution for 60 sec at a flow of 5 μl/min. Association was measured by injection of Ang2-RBD from the indicated species in various concentrations in solution for 180 sec at a flow of 30 μl/min (0.07 nM-50 nM, 1:3 dilution). The dissociation phase was monitored for up to 600 sec and triggered by switching from the sample solution to running buffer at a flow rate of 30 μl/min. The surface was regenerated by injection of 10 mM Glycine pH 2.1 for 60 s at a flow rate of 30 μl/min. Bulk refractive index differences were corrected by subtracting blank injections and by subtracting the response obtained from the reference flow cell without captured antibody. Curve fitting was performed using the 1:1 Langmuir binding model within the Biacore® evaluation software.
# (§1) Crossreactivity to VEGF-A and ANG2 from other species was assessed as described above in “Materials & general methods” section.
# human VEGFA-121-His [1] = biological target: T2, human VEGFA-121-His; experiment: SPR crossreactivity set-up, VEGF-A121-His captured by anti-His antibody, Fab injected, single cycle kinetics
# Procedure: (§2) An anti-His capturing antibody (GE Healthcare 28995056) was immobilized to a Series S Sensor Chip C1 (GE Healthcare BR100535) using standard amine coupling chemistry resulting in a surface density of approximately 600 resonance units (RU). As running and dilution buffer, HBS-P+ (10 mM HEPES, 150 mM NaCl pH 7.4, 0.05% Surfactant P20) was used. […] A dilution series of the tested antibody (3.7-300 nM, 1:3 dilution) was successively injected for 60 s each, dissociation was monitored for 3600 s at a flow rate of 30 μl/min (single cycle kinetics). The surface was regenerated by injecting 10 mM Glycine pH 1.5 for 60 s at a flow of 5 μl/min. […] Curve fitting was performed using the 1:1 Langmuir binding model within the Biacore® evaluation software.
# as §1
# Mouse VEGF-A-121 = biological target: T3, Mouse VEGF-A-121; experiment: as above
# Procedure: as §2, §1
# human VEGFA-121-His [2] = biological target: T2, human VEGFA-121-His; experiment: KinExA equilibrium titration in solution, VEGFA-121
# human VEGFA-121-His [3] = biological target: T2, human VEGFA-121-His; experiment: SPR, VEGF-A121-His captured by anti-His antibody, Fab injected, single cycle kinetics
# Procedure: as §2
# human Ang2-RBD = biological target: T4, human Ang2-RBD; experiment: SPR, Fab captured by anti-Fab antibody, Ang2-RBD injected, 25 C
# Procedure: An anti-Fab capturing antibody (GE Healthcare 28958325) was immobilized to a Series S Sensor Chip C1 (GE Healthcare BR100535) using standard amine coupling chemistry resulting in a surface density of approximately 800 resonance units (RU). As running and dilution buffer, HBS-P+ (10 mM HEPES, 150 mM NaCl pH 7.4, 0.05% Surfactant P20) was used, the temperature of measurement was 25° C. The tested antibody was captured by injecting a 50 nM solution for 60 sec at a flow of 5 μl/min. Association was measured by injection of human Ang2-RBD in various concentrations in solution for 180 sec at a flow of 30 μl/min (0.07 nM-50 nM, 1:3 dilution). The dissociation phase was monitored for up to 900 sec and triggered by switching from the sample solution to running buffer at a flow rate of 30 μl/min. The surface was regenerated by injection of 10 mM Glycine pH 2.1 for 60 s at a flow rate of 30 μl/min. Bulk refractive index differences were corrected by subtracting blank injections and by subtracting the response obtained from the reference flow cell without captured tested antibody. Curve fitting was performed using the 1:1 Langmuir binding model within the Biacore® evaluation software.
Kd (Mouse ANG2),koff (Mouse ANG2),kon (Mouse ANG2),t1/2 (Mouse ANG2),Kd (human VEGFA-121-His [1]),koff (human VEGFA-121-His [1]),kon (human VEGFA-121-His [1]),t1/2 (human VEGFA-121-His [1]),Kd (Mouse VEGF-A-121),koff (Mouse VEGF-A-121),kon (Mouse VEGF-A-121),t1/2 (Mouse VEGF-A-121),Kd (human VEGFA-121-His [2]),t1/2 (human VEGFA-121-His [3]),t1/2 (human Ang2-RBD),Binder
92 pM,0.000743 s⁻¹,8.11e+06 M⁻¹ s⁻¹,0.267 h,45.5 pM,2.21e-05 s⁻¹,486000 M⁻¹ s⁻¹,8.72 h,368 pM,0.000183 s⁻¹,497000 M⁻¹ s⁻¹,1.05 h,~4 pM,–,–,B1
–,–,–,–,–,–,–,–,–,–,–,–,–,42.5 h,24 s,B2
